Experimental data published in patent publication US20200277377A1 (WUXI BIOLOGICS SHANGHAI, published 2020).
Substitutions are numbered along the chain they refer to.

B1: W3162_1.154.8-z35-uAb.IgG1K (antibody, V domains shown)
VH: QVQLVQSGAEVKKPGSSVKVSCKASGYTFTNYFMNWVRQAPGQGLEWMGRVDPEQGRADYAEKFKKRVTITADKSTSTAYMELSSLRSEDTAVYYCARRAMDNYGFAYWGQGTLVTVSS
VL: EIVLTQSPDFQSVTPKEKVTITCSANSALSYMYWYQQKPDQSPKLWVHGTSNLASGVPSRFSGSGSGTDFTLTINSLEAEDAATYYCHHWSNTQWTFGGGTKVEIK
notes: Humanized; label says IgG1K
B2: W3162-1.146.19-z12-uAb.IgG1K (antibody, V domains shown)
VH: QVQLQESGPGLVKPSETLSLTCSVTYHTITSGYDWTWIRKPPGKGMEWIGYISYSGNTNYNPSLKSRVTISRDTSKNQFFLKLSSVTAADTAVYYCASMMVPHYYVMDAWGQGTLVTVSS
VL: DIVMTQTPLSLSVTPGQPASISCRSSQSLLNSDGNTYLYWYLQKPGQSPQLLIYLVSKLGSGVPNRFSGSGSGTDFTLKISRVEAEDVGVYYCVQGTHDPWTFGGGTKVEIK
notes: Humanized; label says IgG1K

Assays:
Experiment in all cases: capture ELISA, alanine scan, vs silent alanine substitutions
[1] = target: T1, hCTLA4_ECD.His point mutant P138 to alanine (human, UniProt P16410 36-161)
T1 construct: extracellular domain; alanine-scan mutein, HEK293F supernatant
T1 sequence (looked up): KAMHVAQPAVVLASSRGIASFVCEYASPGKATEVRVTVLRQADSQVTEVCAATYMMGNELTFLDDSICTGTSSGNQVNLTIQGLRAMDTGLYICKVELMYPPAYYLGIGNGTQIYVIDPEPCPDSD
Protocol: (§1) In order to test how the mutations affect antibody-binding, a capture ELISA was conducted. […] After interacting with the supernatant that contains quantified CTLA4 muteins, HRP conjugated anti-His antibody (1:5000; Rockland Immunochemicals, Pottstown, Pa.) was added as detection antibody. TMB was used as substance of HRP. Absorbance was normalized according to the average of control mutants. After setting an additional cutoff to the binding fold change (<0.55), the final determined epitope residues were identified.

[2] = target: T2, hCTLA4_ECD.His point mutant P137 to alanine (human, UniProt P16410 36-161)
T2 construct: extracellular domain; alanine-scan mutein, HEK293F supernatant
T2 sequence (looked up): T1 sequence (looked up) with P102A, A103P
Protocol: as §1

[3] = target: T3, hCTLA4_ECD.His point mutant G146 to alanine (human, UniProt P16410 36-161)
T3 construct: extracellular domain; alanine-scan mutein, HEK293F supernatant
T3 sequence (looked up): T1 sequence (looked up) with A103P, G111A
Protocol: as §1

[4] = target: T4, hCTLA4_ECD.His point mutant T88 to alanine (human, UniProt P16410 36-161)
T4 construct: extracellular domain; alanine-scan mutein, HEK293F supernatant
T4 sequence (looked up): T1 sequence (looked up) with T53A, A103P
Protocol: as §1

[5] = target: T5, hCTLA4_ECD.His point mutant V73 to alanine (human, UniProt P16410 36-161)
T5 construct: extracellular domain; alanine-scan mutein, HEK293F supernatant
T5 sequence (looked up): T1 sequence (looked up) with V38A, A103P
Protocol: as §1

[6] = target: T6, hCTLA4_ECD.His point mutant L74 to alanine (human, UniProt P16410 36-161)
T6 construct: extracellular domain; alanine-scan mutein, HEK293F supernatant
T6 sequence (looked up): T1 sequence (looked up) with L39A, A103P
Protocol: as §1

[7] = target: T7, hCTLA4_ECD.His point mutant A66 to glycine (human, UniProt P16410 36-161)
T7 construct: extracellular domain; alanine-scan mutein (alanine residues were mutated to glycine), HEK293F supernatant
T7 sequence (looked up): T1 sequence (looked up) with A31G, A103P
Protocol: as §1

[8] = target: T8, hCTLA4_ECD.His point mutant R75 to alanine (human, UniProt P16410 36-161)
T8 construct: extracellular domain; alanine-scan mutein, HEK293F supernatant
T8 sequence (looked up): T1 sequence (looked up) with R40A, A103P
Protocol: as §1

[9] = target: T9, hCTLA4_ECD.His point mutant V71 to alanine (human, UniProt P16410 36-161)
T9 construct: extracellular domain; alanine-scan mutein, HEK293F supernatant
T9 sequence (looked up): T1 sequence (looked up) with V36A, A103P
Protocol: as §1

[10] = target: T10, hCTLA4_ECD.His point mutant C129 to alanine (human, UniProt P16410 36-161)
T10 construct: extracellular domain; alanine-scan mutein, HEK293F supernatant
T10 sequence (looked up): T1 sequence (looked up) with C94A, A103P
Protocol: as §1

[11] = target: T11, hCTLA4_ECD.His point mutant V84 to alanine (human, UniProt P16410 36-161)
T11 construct: extracellular domain; alanine-scan mutein, HEK293F supernatant
T11 sequence (looked up): T1 sequence (looked up) with V49A, A103P
Protocol: as §1

[12] = target: T12, hCTLA4_ECD.His point mutant H39 to alanine (human, UniProt P16410 36-161)
T12 construct: extracellular domain; alanine-scan mutein, HEK293F supernatant
T12 sequence (looked up): T1 sequence (looked up) with H4A, A103P
Protocol: as §1

[13] = target: T13, hCTLA4_ECD.His point mutant M38 to alanine (human, UniProt P16410 36-161)
T13 construct: extracellular domain; alanine-scan mutein, HEK293F supernatant
T13 sequence (looked up): T1 sequence (looked up) with M3A, A103P
Protocol: as §1

| Binder | Fold change [1] [fold] | Fold change [2] [fold] | Fold change [3] [fold] | Fold change [4] [fold] | Fold change [5] [fold] | Fold change [6] [fold] | Fold change [7] [fold] | Fold change [8] [fold] | Fold change [9] [fold] | Fold change [10] [fold] | Fold change [11] [fold] | Fold change [12] [fold] | Fold change [13] [fold] |
| --- | --- | --- | --- | --- | --- | --- | --- | --- | --- | --- | --- | --- | --- |
| B1 | 0.339 | 0.534 | 0.201 | 0.433 | 0.498 | 0.52 | 0.519 | 0.298 | 0.347 | 0.211 | 0.232 | 0.549 | 0.238 |
| B2 | 0.445 | 0.425 | 0.166 | 0.423 | 0.338 | 0.398 | 0.395 | 0.278 | 0.343 | 0.182 | 0.201 | 0.529 | 0.182 |
